Paper PMC8461249

Assays:
[1] = target: TβRII-SE/Fc (TβRII-Soluble Endogenous fused to the human IgG1 Fc domain) (human); assay: SPR; Biacore 3000, CM5 chip with anti-human Fc mixed with anti-mouse Fc antibodies; TβRII-SE/Fc or TβRII-Fc captured to 100–140 RU; TGF-β1, -β2 or -β3 injected at 0.4 to 30 nM, 50 μl/min, association 90 s, dissociation 300 s (900 s for slow rates); 0.1% surfactant; double referencing; 1:1 binding model; stoichiometry from Rmax and mass ratios
[2] = target: TβRII-Fc (TβRII extracellular domain fused to human IgG1 Fc) (human) (UniProt P37173); assay: as above
Sequence of TβRII-Fc (TβRII extracellular domain fused to human IgG1 Fc) (human) (P37173 23-166): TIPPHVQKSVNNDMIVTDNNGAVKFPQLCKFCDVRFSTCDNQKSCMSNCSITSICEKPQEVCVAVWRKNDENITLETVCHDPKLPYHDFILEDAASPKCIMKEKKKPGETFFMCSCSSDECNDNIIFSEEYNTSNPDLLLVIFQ

Substance: TGF-β1 (ligand)
- stoichiometry N (TGF-β dimer per bivalent Fc ligand) [1]: 1
- stoichiometry N (TGF-β dimer per bivalent Fc ligand) [2]: 1

Substance: TGF-β2 (ligand)
- stoichiometry N (TGF-β dimer per bivalent Fc ligand) [1]: 1
- stoichiometry N (TGF-β dimer per bivalent Fc ligand) [2]: 1

Substance: TGF-β3 (ligand)
- stoichiometry N (TGF-β dimer per bivalent Fc ligand) [1]: 1
